Reference: patent US20250066503A1, “CELL INJURY INDUCING THERAPEUTIC DRUG FOR USE IN CANCER THERAPY” (CHUGAI SEIYAKU KABUSHIKI KAISHA, priority 2016, published 2025)
Where a chain is given by its changes, count along the chain named. Blank lines part the entries; values can stand above or below the binder they belong to.

Biological target: T1, human GPC3 (human, UniProt P51654 25-563)
T1 construct: range 25-563; soluble analyte; also called soluble human GPC3; glypican 3
Experiment: SPR

T1 sequence (P51654 25-563 limits assumed): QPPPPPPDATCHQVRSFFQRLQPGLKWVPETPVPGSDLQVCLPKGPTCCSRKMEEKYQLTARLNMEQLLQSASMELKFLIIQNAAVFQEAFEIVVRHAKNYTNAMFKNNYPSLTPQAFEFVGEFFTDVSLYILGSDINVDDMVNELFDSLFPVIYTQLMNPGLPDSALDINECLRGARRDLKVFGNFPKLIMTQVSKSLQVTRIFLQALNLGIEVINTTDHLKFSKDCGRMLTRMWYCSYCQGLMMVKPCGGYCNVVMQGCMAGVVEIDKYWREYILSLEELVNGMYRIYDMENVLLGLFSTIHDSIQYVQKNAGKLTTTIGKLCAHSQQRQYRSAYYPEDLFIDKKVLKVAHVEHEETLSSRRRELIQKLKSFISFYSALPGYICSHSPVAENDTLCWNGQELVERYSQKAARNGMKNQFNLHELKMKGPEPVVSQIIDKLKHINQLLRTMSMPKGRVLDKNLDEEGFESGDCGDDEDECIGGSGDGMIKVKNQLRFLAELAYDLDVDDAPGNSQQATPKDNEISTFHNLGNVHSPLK

B1: H0610-G1dh/none-Hi-Kn010G3/L0132-k0 (antibody, V domains shown)
VH: QVQLVQSGAEVKKPGASVKVSCKASGYTFTDYEMHWIRQPPGQGLEWIGAIDGKTPDTAYSQKFKGRVTLTADKSTSTAYMELSSLTSEDTAVYYCTRFYSYTYWGQGTLVTVSS
VL: DIVMTQSPLSLPVTPGEPASISCRSSQSLVHSNRNTYLHWYQQKPGQAPRLLIYKVSNRVSGVPDRFSGSGSGTDFTLKISRVEAEDVGVYYCGQGTQVPYTFGQGTKLEIK
notes: one-arm
Kd: 5.65 nM

B3: H0610-G1dh/none-Hi-Kn010G3/L0216-k0 (antibody, V domains shown)
VH: B1 VH
VL: B1 VL with S28P, V60F, S61R
notes: one-arm
Kd: 1.86 nM

B5: H0610-G1dh/none-Hi-Kn010G3/L0219-k0 (antibody, V domains shown)
VH: B1 VH
VL: B1 VL with L38I, V60F, S61R
notes: one-arm
Kd: 2.28 nM

B8: H0610-G1dh/none-Hi-Kn010G3/L0134-k0 (antibody, V domains shown)
VH: B1 VH
VL: B1 VL with V60Y
notes: one-arm
Kd: 2.53 nM

B11: H0610-G1dh/none-Hi-Kn010G3/L0144-k0 (antibody, V domains shown)
VH: B1 VH
VL: B1 VL with V60F, S61Q
notes: one-arm
Kd: 4.84 nM

B12: H0610-G1dh/none-Hi-Kn010G3/L0180-k0 (antibody, V domains shown)
VH: B1 VH
VL: B1 VL with V60F, V99N
notes: one-arm
Kd: 4.48 nM

B13: H0610-G1dh/none-Hi-Kn010G3/L0148-k0 (antibody, V domains shown)
VH: B1 VH
VL: B1 VL with V60F, S61W
notes: one-arm
Kd: 3.28 nM

B14: H0610-G1dh/none-Hi-Kn010G3/L0215-k0 (antibody, V domains shown)
VH: B1 VH
VL: B1 VL with S28P, L29P, L38I, V60F
notes: one-arm
Kd: 1.64 nM

B15: H0610-G1dh/none-Hi-Kn010G3/L0147-k0 (antibody, V domains shown)
VH: B1 VH
VL: B1 VL with V60F, S61V
notes: one-arm
Kd: 4.38 nM

B16: H0610-G1dh/none-Hi-Kn010G3/L0155-k0 (antibody, V domains shown)
VH: B1 VH
VL: B1 VL with V60F, G94L
notes: one-arm
Kd: 1.28 nM

B17: H0610-G1dh/none-Hi-Kn010G3/L0138-k0 (antibody, V domains shown)
VH: B1 VH
VL: B1 VL with V60F, S61H
notes: one-arm
Kd: 5.24 nM

B19: H0610-G1dh/none-Hi-Kn010G3/L0149-k0 (antibody, V domains shown)
VH: B1 VH
VL: B1 VL with V60F, G94A
notes: one-arm
Kd: 2.16 nM

B21: H0610-G1dh/none-Hi-Kn010G3/L0220-k0 (antibody, V domains shown)
VH: B1 VH
VL: B1 VL with S28P, V60F, S61R, G94Y
notes: one-arm
Kd: 1.36 nM

B23: H0610-G1dh/none-Hi-Kn010G3/L0218-k0 (antibody, V domains shown)
VH: B1 VH
VL: B1 VL with V60F, S61R, G94Y
notes: one-arm
Kd: 1.99 nM

B24: H0610-G1dh/none-Hi-Kn010G3/L0181-k0 (antibody, V domains shown)
VH: B1 VH
VL: B1 VL with V60F, V99P
notes: one-arm
Kd: 3.51 nM

B26: H0610-G1dh/none-Hi-Kn010G3/L0163-k0 (antibody, V domains shown)
VH: B1 VH
VL: B1 VL with V60F, G94Y
notes: one-arm
Kd: 3.38 nM

B29: H0610-G1dh/none-Hi-Kn010G3/L0157-k0 (antibody, V domains shown)
VH: B1 VH
VL: B1 VL with V60F, G94N
notes: one-arm
Kd: 2.6 nM

B31: H0610-G1dh/none-Hi-Kn010G3/L0139-k0 (antibody, V domains shown)
VH: B1 VH
VL: B1 VL with V60F, S61I
notes: one-arm
Kd: 4.78 nM

B32: H0610-G1dh/none-Hi-Kn010G3/L0217-k0 (antibody, V domains shown)
VH: B1 VH
VL: B1 VL with S25P, V60F, S61R
notes: one-arm
Kd: 1.79 nM

B35: H0610-G1dh/none-Hi-Kn010G3/L0136-k0 (antibody, V domains shown)
VH: B1 VH
VL: B1 VL with V60F, S61F
notes: one-arm
Kd: 5.04 nM

B37: H0610-G1dh/none-Hi-Kn010G3/L0145-k0 (antibody, V domains shown)
VH: B1 VH
VL: B1 VL with V60F, S61R
notes: one-arm
Kd: 2.66 nM

B39: H0610-G1dh/none-Hi-Kn010G3/L0137-k0 (antibody, V domains shown)
VH: B1 VH
VL: B1 VL with V60F, S61G
notes: one-arm
Kd: 5.87 nM

B41: H0610-G1dh/none-Hi-Kn010G3/L0187-k0 (antibody, V domains shown)
VH: B1 VH
VL: B1 VL with V60F, V99Y
notes: one-arm
Kd: 4.92 nM

B42: H0610-G1dh/none-Hi-Kn010G3/L0173-k0 (antibody, V domains shown)
VH: B1 VH
VL: B1 VL with V60F, V99F
notes: one-arm
Kd: 2.83 nM

B43: H0610-G1dh/none-Hi-Kn010G3/L0152-k0 (antibody, V domains shown)
VH: B1 VH
VL: B1 VL with V60F, G94F
notes: one-arm
Kd: 2.36 nM

B44: H0610-G1dh/none-Hi-Kn010G3/L0175-k0 (antibody, V domains shown)
VH: B1 VH
VL: B1 VL with V60F, V99H
notes: one-arm
Kd: 3.84 nM

B46: H0610-G1dh/none-Hi-Kn010G3/L0141-k0 (antibody, V domains shown)
VH: B1 VH
VL: B1 VL with V60F, S61M
notes: one-arm
Kd: 3.86 nM

B47: H0610-G1dh/none-Hi-Kn010G3/L0160-k0 (antibody, V domains shown)
VH: B1 VH
VL: B1 VL with V60F, G94T
notes: one-arm
Kd: 2.12 nM

B48: H0610-G1dh/none-Hi-Kn010G3/L0140-k0 (antibody, V domains shown)
VH: B1 VH
VL: B1 VL with V60F, S61L
notes: one-arm
Kd: 3.38 nM

B49: H0610-G1dh/none-Hi-Kn010G3/L0230-k0 (antibody, V domains shown)
VH: B1 VH
VL: B1 VL with L29P, L38I, V60F, G94Y, G96T
notes: one-arm
Kd: 4 nM

The next lines start with the values.

Kd: 0.211 nM
B2: H0610-G1dh/none-Hi-Kn010G3/L0167-k0 (antibody, V domains shown)
VH: B1 VH
VL: B1 VL with V60F, G96S
notes: one-arm

Kd: 0.408 nM
B4: H0610-G1dh/none-Hi-Kn010G3/L0227-k0 (antibody, V domains shown)
VH: B1 VH
VL: B1 VL with L29P, L38I, V60F, G94L
notes: one-arm

Kd: 0.093 nM
B6: H0610-G1dh/none-Hi-Kn010G3/L0226-k0 (antibody, V domains shown)
VH: B1 VH
VL: B1 VL with L29P, L38I, V60F, G94I
notes: one-arm

Kd: 0.973 nM
B7: H0610-G1dh/none-Hi-Kn010G3/L0161-k0 (antibody, V domains shown)
VH: B1 VH
VL: B1 VL with V60F, G94V
notes: one-arm

Kd: 0.657 nM
B9: H0610-G1dh/none-Hi-Kn010G3/L0214-k0 (antibody, V domains shown)
VH: B1 VH
VL: B1 VL with S28P, L29P, V60F, S61R
notes: one-arm

Kd: 0.202 nM
B10: H0610-G1dh/none-Hi-Kn010G3/L0228-k0 (antibody, V domains shown)
VH: B1 VH
VL: B1 VL with L29P, L38I, V60F, G94V
notes: one-arm

Kd: 1.25 nM
B18: H0610-G1dh/none-Hi-Kn010G3/L0213-k0 (antibody, V domains shown)
VH: B1 VH
VL: B1 VL with L29P, L38I, V60F, S61R
notes: one-arm

Kd: 1.01 nM
B20: H0610-G1dh/none-Hi-Kn010G3/L0154-k0 (antibody, V domains shown)
VH: B1 VH
VL: B1 VL with V60F, G94I
notes: one-arm

Kd: 1.22 nM
B22: H0610-G1dh/none-Hi-Kn010G3/L0202-k0 (antibody, V domains shown)
VH: B1 VH
VL: B1 VL with L29P, N35W, V60F
notes: one-arm

Kd: 0.573 nM
B25: H0610-G1dh/none-Hi-Kn010G3/L0143-k0 (antibody, V domains shown)
VH: B1 VH
VL: B1 VL with V60F, S61P
notes: one-arm

Kd: 0.699 nM
B27: H0610-G1dh/none-Hi-Kn010G3/L0168-k0 (antibody, V domains shown)
VH: B1 VH
VL: B1 VL with V60F, G96T
notes: one-arm

Kd: 1.04 nM
B28: H0610-G1dh/none-Hi-Kn010G3/L0200-k0 (antibody, V domains shown)
VH: B1 VH
VL: B1 VL with S25P, L29P, V60F
notes: one-arm

Kd: 1.08 nM
B30: H0610-G1dh/none-Hi-Kn010G3/L0186-k0 (antibody, V domains shown)
VH: B1 VH
VL: B1 VL with V60F, V99W
notes: one-arm

Kd: 0.243 nM
B33: H0610-G1dh/none-Hi-Kn010G3/L0224-k0 (antibody, V domains shown)
VH: B1 VH
VL: B1 VL with L29P, L38I, V60F, S61P, G94Y
notes: one-arm

Kd: 0.589 nM
B34: H0610-G1dh/none-Hi-Kn010G3/L0231-k0 (antibody, V domains shown)
VH: B1 VH
VL: B1 VL with L29P, L38I, V60F, G94Y, V99W
notes: one-arm

Kd: 1.25 nM
B36: H0610-G1dh/none-Hi-Kn010G3/L0151-k0 (antibody, V domains shown)
VH: B1 VH
VL: B1 VL with V60F, G94E
notes: one-arm

Kd: 1.2 nM
B38: H0610-G1dh/none-Hi-Kn010G3/L0229-k0 (antibody, V domains shown)
VH: B1 VH
VL: B1 VL with L29P, L38I, V60F, G94Y, G96S
notes: one-arm

Kd: 1.01 nM
B40: H0610-G1dh/none-Hi-Kn010G3/L0205-k0 (antibody, V domains shown)
VH: B1 VH
VL: B1 VL with L29P, V60F, S61W
notes: one-arm

Kd: 0.475 nM
B45: H0610-G1dh/none-Hi-Kn010G3/L0223-k0 (antibody, V domains shown)
VH: B1 VH
VL: B1 VL with L29P, L38I, V60L, G94Y
notes: one-arm
